{
  "source": "paper PMC10552185",
  "origin": "cited, not measured here",
  "biological_target": "RegA (Dictyostelium discoideum) (UniProt Q23917)",
  "sequence (Q23917 whole entry)": "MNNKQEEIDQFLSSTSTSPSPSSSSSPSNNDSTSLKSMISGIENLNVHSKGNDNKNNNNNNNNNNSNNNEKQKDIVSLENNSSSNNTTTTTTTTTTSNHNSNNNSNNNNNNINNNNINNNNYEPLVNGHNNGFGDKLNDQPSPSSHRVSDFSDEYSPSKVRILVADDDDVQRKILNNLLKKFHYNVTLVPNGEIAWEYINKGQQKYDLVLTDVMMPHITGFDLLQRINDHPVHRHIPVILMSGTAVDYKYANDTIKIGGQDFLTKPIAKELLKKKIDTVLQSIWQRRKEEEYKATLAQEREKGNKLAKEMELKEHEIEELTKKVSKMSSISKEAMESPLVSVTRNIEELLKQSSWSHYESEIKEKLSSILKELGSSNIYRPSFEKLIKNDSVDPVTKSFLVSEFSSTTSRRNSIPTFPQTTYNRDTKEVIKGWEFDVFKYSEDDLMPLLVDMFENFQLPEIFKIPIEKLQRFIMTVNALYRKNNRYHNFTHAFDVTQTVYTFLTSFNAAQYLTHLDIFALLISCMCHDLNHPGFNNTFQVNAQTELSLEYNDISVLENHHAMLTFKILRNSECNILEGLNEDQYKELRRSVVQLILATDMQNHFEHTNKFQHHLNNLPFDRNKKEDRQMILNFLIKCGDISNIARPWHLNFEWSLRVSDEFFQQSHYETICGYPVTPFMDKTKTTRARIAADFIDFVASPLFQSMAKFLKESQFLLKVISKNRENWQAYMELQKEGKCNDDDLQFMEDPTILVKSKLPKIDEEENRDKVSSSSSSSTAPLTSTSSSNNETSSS",
  "data": [
    {"substance": "PKA RIα (from UniProt P10644)", "values": [
      {"measurement": "Kd", "value": 100, "unit": "nM"}
    ]}
  ]
}
